# Data from patent US20110190196A1 (University of California, published 2011).
# Target: T1, ATP-binding cassette transporter A1 (ABCA1) (UniProt P41233 1-2261, limits assumed)
# Assay: cell-based or functional assay
# T1 sequence (P41233 whole entry): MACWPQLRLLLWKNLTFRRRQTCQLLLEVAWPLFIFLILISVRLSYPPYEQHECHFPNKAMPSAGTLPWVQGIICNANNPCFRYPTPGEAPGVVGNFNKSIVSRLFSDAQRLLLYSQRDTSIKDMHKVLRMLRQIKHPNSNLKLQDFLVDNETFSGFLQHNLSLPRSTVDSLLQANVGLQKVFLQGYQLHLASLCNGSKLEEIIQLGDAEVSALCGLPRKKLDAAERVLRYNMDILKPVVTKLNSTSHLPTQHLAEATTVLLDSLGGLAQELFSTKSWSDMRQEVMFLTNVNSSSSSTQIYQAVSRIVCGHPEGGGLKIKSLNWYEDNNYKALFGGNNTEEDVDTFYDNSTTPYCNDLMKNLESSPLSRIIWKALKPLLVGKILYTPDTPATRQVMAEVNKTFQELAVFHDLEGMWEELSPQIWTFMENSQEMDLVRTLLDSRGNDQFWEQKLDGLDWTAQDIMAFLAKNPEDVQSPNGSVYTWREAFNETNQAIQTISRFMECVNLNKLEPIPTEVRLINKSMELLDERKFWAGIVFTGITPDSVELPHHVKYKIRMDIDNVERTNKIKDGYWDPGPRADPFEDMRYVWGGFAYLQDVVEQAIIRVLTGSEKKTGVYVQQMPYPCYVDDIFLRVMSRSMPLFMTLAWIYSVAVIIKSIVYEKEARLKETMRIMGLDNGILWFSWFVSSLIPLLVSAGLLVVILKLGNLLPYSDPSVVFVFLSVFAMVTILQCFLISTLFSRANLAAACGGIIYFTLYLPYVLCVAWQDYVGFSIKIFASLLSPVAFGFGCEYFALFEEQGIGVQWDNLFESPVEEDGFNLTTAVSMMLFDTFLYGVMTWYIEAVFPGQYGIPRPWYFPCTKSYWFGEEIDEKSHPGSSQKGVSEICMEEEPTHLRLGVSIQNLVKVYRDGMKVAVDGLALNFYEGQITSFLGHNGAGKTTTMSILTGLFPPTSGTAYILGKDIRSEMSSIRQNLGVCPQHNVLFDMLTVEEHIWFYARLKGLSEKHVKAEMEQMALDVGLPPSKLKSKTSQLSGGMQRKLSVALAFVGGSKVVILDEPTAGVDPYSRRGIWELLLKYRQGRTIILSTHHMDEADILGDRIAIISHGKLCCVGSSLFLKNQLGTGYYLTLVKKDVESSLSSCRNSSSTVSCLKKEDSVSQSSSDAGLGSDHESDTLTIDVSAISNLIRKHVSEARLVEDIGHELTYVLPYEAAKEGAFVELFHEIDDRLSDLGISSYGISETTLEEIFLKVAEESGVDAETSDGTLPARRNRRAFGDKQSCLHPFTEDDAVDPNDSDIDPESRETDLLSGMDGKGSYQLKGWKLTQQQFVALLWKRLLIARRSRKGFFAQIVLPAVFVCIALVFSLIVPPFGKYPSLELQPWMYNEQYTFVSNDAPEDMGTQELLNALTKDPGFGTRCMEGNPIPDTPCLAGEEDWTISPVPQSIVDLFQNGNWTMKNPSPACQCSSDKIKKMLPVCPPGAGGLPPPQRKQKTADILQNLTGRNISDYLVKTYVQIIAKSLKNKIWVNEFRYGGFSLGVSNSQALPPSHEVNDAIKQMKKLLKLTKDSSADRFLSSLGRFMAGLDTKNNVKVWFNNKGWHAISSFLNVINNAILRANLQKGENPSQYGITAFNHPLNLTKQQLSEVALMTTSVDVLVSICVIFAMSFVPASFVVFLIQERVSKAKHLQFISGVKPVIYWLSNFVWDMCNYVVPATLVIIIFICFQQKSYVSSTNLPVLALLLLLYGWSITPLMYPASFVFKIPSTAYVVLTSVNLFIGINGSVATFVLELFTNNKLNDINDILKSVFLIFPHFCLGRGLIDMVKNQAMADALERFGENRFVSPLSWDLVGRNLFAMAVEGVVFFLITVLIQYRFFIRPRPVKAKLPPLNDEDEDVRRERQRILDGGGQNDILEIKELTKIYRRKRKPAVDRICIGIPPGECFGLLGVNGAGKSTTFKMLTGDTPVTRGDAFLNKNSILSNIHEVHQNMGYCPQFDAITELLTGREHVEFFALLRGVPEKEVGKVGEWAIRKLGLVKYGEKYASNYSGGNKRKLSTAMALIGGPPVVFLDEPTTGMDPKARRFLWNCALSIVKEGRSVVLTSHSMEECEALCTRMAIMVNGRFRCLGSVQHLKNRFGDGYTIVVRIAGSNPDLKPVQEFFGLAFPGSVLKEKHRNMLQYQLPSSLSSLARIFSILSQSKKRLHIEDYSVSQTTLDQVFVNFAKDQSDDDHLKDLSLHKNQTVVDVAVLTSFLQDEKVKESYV
Binder,"% cholesterol efflux/8 hours, No cAMP","% cholesterol efflux/8 hours, Plus cAMP"
ELREKLEAWFELFAEFFARFKS [N356-4],1.72%,4.25%
ELREKLEAWFELFAEFFARFK [N356-5],2.18%,5.97%
ELREKLEAWFELFEEFFARFKS [N356-3],0.82%,3.94%
ELREKLEAWRELFEEFFARFKS [N356-2],1.27%,6.52%
ELRAKLEAWFEAFAEFFARF [N356-7],2.78%,7%
ELREKLEAWFEAFEEFFARFKS [N356-1],0.86%,4.16%
ELREKLEAWFELFAEFFARF [N356-6],2.09%,4.04%

# Target: T1, ATP-binding cassette transporter A1 …
# Assay: cell-based or functional assay
# Remark: another data set of the same source
Binder,% cholesterol efflux/4 hours at 0.1 µg/ml,% cholesterol efflux/4 hours at 0.3 µg/ml,% cholesterol efflux/4 hours at 1.0 µg/ml,% cholesterol efflux/4 hours at 3.0 µg/ml,% cholesterol efflux/4 hours at 10 µg/ml,% cholesterol efflux/4 hours at 30 µg/ml
ELREKLEAWFELFAEFFARFKS [N356-4],0.14%,0.61%,1.89%,5.68%,6.06%,6.52%
ELREKLEAWFELFAEFFARFK [N356-5],0.02%,0.31%,1.59%,4.27%,3.86%,3.2%
ELREKLEAWFELFEEFFARFKS [N356-3],0%,0.57%,1.2%,4.34%,5.13%,3.24%
ELREKLEAWRELFEEFFARFKS [N356-2],0%,0%,0.02%,1.3%,5.7%,5.92%
ELRAKLEAWFEAFAEFFARF [N356-7],0.15%,0.23%,1.17%,4.99%,5.49%,5.66%
ELREKLEAWFEAFEEFFARFKS [N356-1],0%,0%,0.23%,4.71%,5.61%,3.5%
ELREKLEAWFELFAEFFARF [N356-6],0.01%,0.23%,0.67%,4.07%,3.78%,3.91%

# Target: T1, ATP-binding cassette transporter A1 …
# Assay: cell-based or functional assay
# Remark: another data set of the same source
Binder,"% cholesterol efflux/8 hours, +cAMP","% cholesterol efflux/8 hours, -cAMP"
EVREKLEAWFEAFREFAERFKS [N965-1],9.9%,1.75%
EVREKLEAWFELFREFLERFL [N965-6],6.18%,3.15%
EVREKLEAWFELFREFAERFLS [N965-3],3.85%,1.45%
EVREKLEAWFELFREFLERF [N965-7],4.03%,1.5%
ELREKLEAWRELFEEFFARFLS [N965-9],2.94%,1.06%
EVREKLEAWFELFREFAERFKS [N965-2],6.97%,1.28%
EVREKLEAWFELFREFLERFLS [N965-5],5.52%,2.91%
EVREKLEAWFELFREFLERFKS [N965-4],4.76%,1.52%

# Target: T1, ATP-binding cassette transporter A1 …
# Assay: cell-based or functional assay
# Remark: another data set of the same source
Binder,% cholesterol efflux/4 hours at 0.1 µg/ml,% cholesterol efflux/4 hours at 0.3 µg/ml,% cholesterol efflux/4 hours at 1.0 µg/ml,% cholesterol efflux/4 hours at 3.0 µg/ml,% cholesterol efflux/4 hours at 10 µg/ml,% cholesterol efflux/4 hours at 30 µg/ml
EVREKLEAWFEAFREFAERFKS [N965-1],0%,0.13%,0%,0.44%,2.9%,6.01%
EVREKLEAWFELFREFLERFL [N965-6],0.11%,0.49%,1.59%,1.98%,2.22%,2.75%
EVREKLEAWFELFREFAERFLS [N965-3],0.23%,0.47%,1.06%,3.48%,3.05%,2.53%
EVREKLEAWFELFREFLERF [N965-7],0.03%,0.3%,1.39%,4.94%,3.65%,2.66%
ELREKLEAWRELFEEFFARFLS [N965-9],0.03%,0.41%,0.72%,2.45%,1.77%,1.41%
EVREKLEAWFELFREFAERFKS [N965-2],0%,0.13%,0.01%,2.23%,5.96%,3.98%
EVREKLEAWFELFREFLERFLS [N965-5],0.12%,0.9%,2.13%,4.89%,4.06%,3.82%
EVREKLEAWFELFREFLERFKS [N965-4],0.29%,0.67%,2.7%,4.72%,4%,2.94%

# Target: T1, ATP-binding cassette transporter A1 …
# Assay: cell-based or functional assay
# Remark: another data set of the same source
Binder,"% cholesterol efflux/8 hours, No cAMP","% cholesterol efflux/8 hours, Plus cAMP"
ELRERLEAWLELLRELLERL [N1154-7],1.23%,4.14%
DLRDKLDAWLDLLRDLLDRL [N1154-9],1.81%,4.83%
ELRDRLEAWLDLLRELLERL [N1154-10],2.66%,8.25%
ELREKLEAWLELLRELLERL [N1154-6],1.17%,4.29%
DLRDRLDAWLDLLRDLLDRL [N1154-11],4.2%,9.04%
ELRDKLEAWLDLLRELLERL [N1154-8],1.31%,4.38%

# Target: T1, ATP-binding cassette transporter A1 …
# Assay: cell-based or functional assay
# Remark: another data set of the same source
Binder,% cholesterol efflux/4 hours at 0.1 µg/ml,% cholesterol efflux/4 hours at 0.3 µg/ml,% cholesterol efflux/4 hours at 1.0 µg/ml,% cholesterol efflux/4 hours at 3.0 µg/ml,% cholesterol efflux/4 hours at 10 µg/ml,% cholesterol efflux/4 hours at 30 µg/ml
ELRERLEAWLELLRELLERL [N1154-7],0.23%,0.83%,2.26%,4.14%,3.24%,3.28%
DLRDKLDAWLDLLRDLLDRL [N1154-9],0.08%,0.43%,1.81%,3.48%,3.31%,4.35%
ELRDRLEAWLDLLRELLERL [N1154-10],0.58%,1%,2.12%,5.25%,4.15%,3.7%
ELREKLEAWLELLRELLERL [N1154-6],0.18%,0.46%,2.51%,4.73%,3.56%,2.71%
DLRDRLDAWLDLLRDLLDRL [N1154-11],0.58%,1.34%,2.56%,4.84%,4.17%,5.55%
ELRDKLEAWLDLLRELLERL [N1154-8],0%,0.48%,1.51%,3.41%,2.99%,3.02%
